Results on one molecule are retold here after US20250304643A1 (BAINAN BIOTECH, published 2025).

[ ]: non-standard residue; d: D form. The star is where a group is joined. Palmitoyl = CCCCCCCCCCCCCCCC(=O)*; Aib = CC(C)(N)C(=O)O

This test deals with macaque GLP-2R (macaque). In words: cell-based or functional assay.

B1: Compound no. 5 (peptide)
peptide: Palmitoyl-H[Aib]DGTFISDYST[Aib]LDNLAARDFINWLIQTKITK-OH
SMILES: CCCCCCCCCCCCCCCC(=O)N[C@@H](Cc1c[nH]cn1)C(=O)NC(C)(C)C(=O)N[C@@H](CC(=O)O)C(=O)NCC(=O)N[C@H](C(=O)N[C@@H](Cc1ccccc1)C(=O)N[C@H](C(=O)N[C@@H](CO)C(=O)N[C@@H](CC(=O)O)C(=O)N[C@@H](Cc1ccc(O)cc1)C(=O)N[C@@H](CO)C(=O)N[C@H](C(=O)NC(C)(C)C(=O)N[C@@H](CC(C)C)C(=O)N[C@@H](CC(=O)O)C(=O)N[C@@H](CC(N)=O)C(=O)N[C@@H](CC(C)C)C(=O)N[C@@H](C)C(=O)N[C@@H](C)C(=O)N[C@@H](CCCNC(=N)N)C(=O)N[C@@H](CC(=O)O)C(=O)N[C@@H](Cc1ccccc1)C(=O)N[C@H](C(=O)N[C@@H](CC(N)=O)C(=O)N[C@@H](Cc1c[nH]c2ccccc12)C(=O)N[C@@H](CC(C)C)C(=O)N[C@H](C(=O)N[C@@H](CCC(N)=O)C(=O)N[C@H](C(=O)N[C@@H](CCCCN)C(=O)N[C@H](C(=O)N[C@H](C(=O)N[C@@H](CCCCN)C(=O)O)[C@@H](C)O)[C@@H](C)CC)[C@@H](C)O)[C@@H](C)CC)[C@@H](C)CC)[C@@H](C)O)[C@@H](C)CC)[C@@H](C)O
As for B1, the “Efficacy (%)” value was 120%.
